# Source: the DeepSol protein solubility set
# Experiment: soluble on expression in E. coli; label from the status in PepcDB or PDB records
row,Sequence,soluble on expression in E. coli
1,MKFSVLMSLYIKENPQFLRECFESLVAQTRQADEIVLVFDGVVTPDLEFVVTEFETKLPLKLVKLPQNRGLGKALNEGLLHCDYDWVFRMDTDDICVPDRFEKQVAFIEQHPESIIFGGQIAEFGKNVNDIVAYRNVPTSAQEIIKFTQKRCPFNHMTVAYQKSAVINCGGYEDLQEDYYLWIKLVAQGLYMANLPDILVYARVGNGMVSRRRGVNQAKAEWRLFKLKYRLGIQGLLSGLFTFALRFGSRLLPTSLLKKLYQTFLRK,soluble
2,MKFTETSLKLNPLTEITFFLTFGAKTMSNQWNSGIHDRKLKEEICEIGRRVYNKGFAAANDGNISIRVGENEVLCSPTMICKGFMKPDDICAVDLDGNQIAGTRKRTSEILLHLAIMKERPDVKAVVHCHPPHATAFAVAREPIPQCVLPEVEVFMGEVPMAPYETPGGQKFADTVVPFLKGGTNTIILTGHGTVTFGKSLEDAYWKTEILDAYCNILLLSKQLGRVTYFTENETRELLDLKKKLGFDDPRFHVEDCDLCGNSAFRDGYKEGIPQQKSFEPAPSYPGYLSKPSTQATPATNNGDSDQLIKAITDQVMSALGK,not soluble
3,MKFYRRIEPIKAMTFDLDDTLYDNHPVIIRMESELLTWLQQTHPAVAHMEKADWLQVKKHVLQQSPDLKSDVTLWRLVQLKHAFLSVGYDEAQAQVAAEEGVQLALEWRSQFDVPQQSL,not soluble
4,MKGFCYRCGHEGELLDGLCKICYTHMNPLIEVDNEVHVEVCHMCGSYKRKLWQDPQKRETYEIMEEIAYFGVKDNLKKANKSIDVEIMPQEPRQLPGGKRSRVEIPTVVFAKGRLVGEDNDREEERHITVYLDMVQCPRCSRCMSNYYEGTLQVRAMNRFLNDKERIELDDFVRDEAGKRLNKDRMAFISKYIPQKEGLDYQMGSMGAIRNIASAIKAKYGGKSIETAKLVGVDKDTGKDMYRITVAVRIPEFKLGDILEHKEKIYVVSSLNESRVYMEPVELGDKIALVWNEIDKSAKLIKKGEDCETATVISITPDTITAMDDSNYEIYEYNNTIENVKEGNKIRIFKNEEINRILEIIELEHHHHHH,soluble
5,MKGLENAIRNLNSLDRQMVPRASIWAVNRVAQKAVSVATRKVARETVAGDNQVRGLPLKLVRQRVRLFKAGTDGKRSARIRINRGNLPAIKLGAAQVRMSKRRGKLLYRGSVLKIGPYLFRDAFIQQLANGRWHVMRRVNGKNRYPIDVVKIPLSGPLTQAFESATQSLIDEEIPKQLGYALKQQLRLYLSR,not soluble
6,MKGLKERQDRRLGAFLGLAVGDALGAQVEGLPKGTFPEVREMKGGGPHRLPPGFWTDDTSQALCLAESLLQRGFDPKDQMDRYLRWYREGYRSATGVCFGLGHATRRALERYAATGDPYAGDEAGAGNGPLMRLAPLVLAYENHPDLLSLARRAARTTHGAREALEATEVLAWLLREALRGAPKEALLALEPFRGADLHPALRRVVEGGFWEAPEEGPGYAPGTLAAALWAFARGRDFEEGMRLAVNLGGDADTVGAVYGQLAGAYYGLGAIPGRWLRALHLREEMEALALALYRMSMASPRE,soluble
7,MKIALMMENSQAAKNAMVAGELNSVAGGLGHDVFNVGMTDENDHHLTYIHLGIMASILLNSKAVDFVVTGCGTGQGALMSCNLHPGVVCGYCLEPSDAFLFNQINNGNAISLAFAKGFGWAGELNVRYIFEKAFTGKRGEGYPIERAAPQQANAAILNNVKAAVAKDVVEGLRAIDQELVKTAVGSTQFQECFFAHCQVPEIAEYVKSLLD,soluble
8,MKIAYFSDTYYPTPDGVSTYLKDVKRGLEKRGHEVYIFSLTGDPHEKNVFIPRTVPFPPYDQYRMPLIPFPFREFKTAVDIMPDVIHLHNAFYMSSVGYLVARRLGKKPISTFHTDIDKMRESIRLPFSDLIFDLGKRYSIYLYRKCKFVLAPSCQVKAYLERCGLKNIVTVPLFVDTDELSPAKASNKQDIILYLGRLTKDKGVYRVLELANEMKGTGYKFIIAGVGPELERMKAYVKENDISNVNILGYVKEDEKKQLMEVSKFFIYPSSADTFGISVFEALSMGLPAIVSKEFPVKEDTNAIVYEDFSNIKHIANKLLNIDQATYSEMSTSARTLAISKYSIDRHIDQLLSLYMSLVDHLEHHHHHH,not soluble
9,MKIESSCPLPVKPGMTVAQATEACYQSELGADTYVEEFEGWVDIEALEPGDPGRKIVCCVEDGICITVEMKYMELPITDTFYGVDLNCQPGEGWMTSLERVARALEDKGLTVVKRDSYILLPDVFVAIEVGETIGWFDPAYWSREEFLEEAILA,not soluble
